Measurements: patent US20250289888A1

What was measured:
Experiment in all cases: cell-based or functional assay
mouse FcγRIV (mouse) = target: mouse FcγRIV (mouse)
[1] = target: human FcγRIIa, H variant (human) (UniProt P12318)
[2] = target: human FcγRIIa, R variant (human) (UniProt P12318)
human FcγRIIb (human) = human FcγRIIb (human) (UniProt P31994)
mouse FcγRIII (mouse) = mouse FcγRIII (mouse) (UniProt P08508)
mouse FcγRIII (mouse), sequence (P08508 31-261): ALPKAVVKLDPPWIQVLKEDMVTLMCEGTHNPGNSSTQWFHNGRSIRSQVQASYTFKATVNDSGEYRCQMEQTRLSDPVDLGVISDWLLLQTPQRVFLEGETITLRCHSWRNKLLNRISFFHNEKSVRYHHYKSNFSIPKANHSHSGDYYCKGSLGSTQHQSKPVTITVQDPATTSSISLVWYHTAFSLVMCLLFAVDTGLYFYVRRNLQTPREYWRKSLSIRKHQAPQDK

human FcγRIIb (human), sequence (P31994 43-310): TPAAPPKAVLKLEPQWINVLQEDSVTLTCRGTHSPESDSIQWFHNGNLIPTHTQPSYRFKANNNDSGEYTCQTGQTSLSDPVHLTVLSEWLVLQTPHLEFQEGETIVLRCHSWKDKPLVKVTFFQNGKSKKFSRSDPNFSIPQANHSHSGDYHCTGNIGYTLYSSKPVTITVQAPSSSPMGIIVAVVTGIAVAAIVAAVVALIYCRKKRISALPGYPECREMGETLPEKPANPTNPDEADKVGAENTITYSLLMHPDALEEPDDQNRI
human FcγRIIa, R variant (human), sequence (P12318 other isoform, or with tags, fused parts or gaps mutant limits assumed): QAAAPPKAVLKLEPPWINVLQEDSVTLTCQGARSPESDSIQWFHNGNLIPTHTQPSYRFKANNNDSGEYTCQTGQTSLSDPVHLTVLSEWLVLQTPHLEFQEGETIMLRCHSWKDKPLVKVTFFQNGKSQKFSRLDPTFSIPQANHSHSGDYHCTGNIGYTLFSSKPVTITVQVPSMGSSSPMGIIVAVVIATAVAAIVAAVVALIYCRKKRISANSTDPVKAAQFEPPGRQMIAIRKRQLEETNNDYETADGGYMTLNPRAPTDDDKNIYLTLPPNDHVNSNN
mouse FcγRIV (mouse), sequence (A0A0B4J1G0 21-203): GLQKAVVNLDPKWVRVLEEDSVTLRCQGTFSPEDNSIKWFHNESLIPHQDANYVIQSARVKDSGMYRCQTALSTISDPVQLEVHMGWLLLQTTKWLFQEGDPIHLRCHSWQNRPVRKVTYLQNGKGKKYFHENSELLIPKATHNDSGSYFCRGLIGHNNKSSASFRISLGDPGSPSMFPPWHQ
human FcγRIIa, H variant (human), sequence (P12318 34-317, change not shown): as the sequence (P12318 other isoform, or with tags, fused parts or gaps mutant limits assumed) above, with R134H counted along it

An EC50 (mouse FcγRIV (mouse)) of 2.21 µg/mL, a Maximum luminescence (RLU) (mouse FcγRIV (mouse)) of 990 RLU and an EC50 [1] of 0.05 µg/mL were found for Ipilimumab (antibody) in this work. The Maximum luminescence (RLU) [1] was 973 RLU, the EC50 [2] was 0.21 µg/mL and the Maximum luminescence (RLU) [2] was 2640 RLU. The EC50 (human FcγRIIb (human)) was 0.17 µg/mL, the Maximum luminescence (RLU) (human FcγRIIb (human)) was 5800 RLU and the Maximum luminescence (RLU) (mouse FcγRIII (mouse)) was 17500 RLU.
